Reference: US20220403001A1, “PDE5 DERIVED REGULATORY CONSTRUCTS AND METHODS OF USE IN IMMUNOTHERAPY” (Obsidian Therapeutics, Inc., priority 2018, published 2022)
Values belong to the substance of their own block, whether it stands above or below them.

Tests used:
hPDE5 mutants [1] = target: T1, hPDE5 mutants (Homo sapiens, UniProt O76074); test: GFP MFI by FACS in HCT116 cells transduced with hPDE5 constructs; assay type: cell-based; conditions: hotspot constructs, HCT116
Protocol: (§1) Desirable qualities of a DD include, low expression of the SRE in the absence of ligand and ligand dependent stabilization of the SRE. Constructs were generated using DDs linked to GFP using an SG linker. […] The mean fluorescence intensity (MFI) of GFP was analyzed by FACS. […] Destabilizing mutation coefficient less than 1 are desirable.
(§2) Mean fluorescence intensity (MFI) was measured by FACS. […] Destabilizing mutation coefficient ratios less than 1 are desirable.
(§3) Mean fluorescence intensity (MFI) was measured by FACS. […] Destabilizing mutation co-efficient ratios less than 1 are desirable.
(§4) Mean fluorescence intensity (MFI) was measured by FACS. […] Destabilizing mutation coefficient less than 1 are desirable.
as §4
(§5) Mean fluorescence intensity (MFI) of GFP was measured by FACS.
(§6) Mean fluorescence intensity (MFI) was measured by FACS.
(§7) The media containing the ligand was removed and fresh media without the ligand was added.
(§8) The properties of the DDs were analyzed in the presence and absence of ligands via FACS as previously described.
(§9) GFP fluorescence was measured by FACS.
(§10) The properties of the DDs were analyzed via FACS both in the presence and absence of ligands.
as §9

hPDE5 mutants [2] = test: as above; assay type: cell-based, human; conditions: hotspot constructs
Protocol: as §1, §2, §3, §4, §4, §5, §6, §7, §8, §9, §10, §9

hPDE5 mutants [3] = target: T1, hPDE5 mutants; test: GFP FACS analysis of hPDE5 mutant library clones in NIH3T3 cell pools; conditions: for MFI 10 μM VDF / MFI DMSO: GFP, NIH3T3 cell pools; for MFI 10 μM VDF: 10 μM vardenafil 24 hr; for MFI 10 μM VDF / MFI DMSO / GFP FACS analysis (MFI) / Stabilization ratio / Destabilizing mutation co-efficient: experiment 1; for MFI DMSO: no ligand (DMSO); for Stabilization ratio: GFP intensity 10 μM vardenafil vs DMSO; for Destabilizing mutation co-efficient: GFP intensity mutant vs PDE5 wildtype construct in absence of ligand
hPDE5 mutants [4] = test: as above; conditions: experiment 1

GFP by FACS, Sildenafil 10 μM (hPDE5 mutants [1]): 288
GFP by FACS, Vardenafil 1 μM (hPDE5 mutants [1]): 854
Substance: OT-001186: hPDE5 R732G AcGFP construct
GFP by FACS, Sildenafil 0 μM (DMSO) (hPDE5 mutants [2]; HCT116, DMSO control of Sildenafil): 298
GFP by FACS, Vardenafil 0 μM (DMSO) (hPDE5 mutants [2]; HCT116, DMSO control of Vardenafil): 176

Substance: LibC000020: hPDE5 (Amino acid 535-860 of WT, A722V, F755L, M760I), DD generated by random mutagenesis
MFI 10 μM VDF (hPDE5 mutants [3]): 1459
MFI DMSO (hPDE5 mutants [3]): 332
GFP FACS analysis (MFI) (hPDE5 mutants [3]; SDF 3.704 μM): 376
GFP FACS analysis (MFI) (hPDE5 mutants [3]; SDF 11.111 μM): 373
GFP FACS analysis (MFI) (hPDE5 mutants [3]; SDF 33.333 μM): 407
GFP FACS analysis (MFI) (hPDE5 mutants [3]; SDF 100 μM): 513
GFP FACS analysis (MFI) (hPDE5 mutants [3]; TDF 3.704 μM): 342
GFP FACS analysis (MFI) (hPDE5 mutants [3]; TDF 11.111 μM): 371
GFP FACS analysis (MFI) (hPDE5 mutants [3]; TDF 33.333 μM): 440
GFP FACS analysis (MFI) (hPDE5 mutants [3]; TDF 100 μM): 509
GFP FACS analysis (MFI) (hPDE5 mutants [3]; VDF 1.235 μM): 399
GFP FACS analysis (MFI) (hPDE5 mutants [3]; VDF 3.704 μM): 733
GFP FACS analysis (MFI) (hPDE5 mutants [3]; VDF 11.111 μM): 1395
GFP FACS analysis (MFI) (hPDE5 mutants [3]; VDF 33.333 μM): 2144
GFP FACS analysis (MFI) (hPDE5 mutants [3]; VDF 100 μM): 2499
Fluorescence intensity Sildenafil (hPDE5 mutants [3]; median GFP fluorescence by FACS, 10 μM Sildenafil, direct comparison of clones): 513
Fluorescence intensity Tadalafil (hPDE5 mutants [3]; median GFP fluorescence by FACS, 10 μM Tadalafil, direct comparison of clones): 509
Fluorescence intensity Vardenafil (hPDE5 mutants [3]; median GFP fluorescence by FACS, 10 μM Vardenafil, direct comparison of clones): 2499
Fluorescence intensity DMSO (hPDE5 mutants [3]; median GFP fluorescence by FACS, vehicle DMSO (no ligand), direct comparison of clones): 273
GFP FACS analysis (MFI) (hPDE5 mutants [4]; DMSO (no ligand), SDF series): 338
GFP FACS analysis (MFI) (hPDE5 mutants [4]; DMSO (no ligand), TDF series): 243
GFP FACS analysis (MFI) (hPDE5 mutants [4]; DMSO (no ligand), VDF series): 238
GFP FACS analysis (MFI) (hPDE5 mutants [4]; SDF 1.235 μM): 371
Percent stabilization effect (hPDE5 mutants [4]; SDF 1.235 μM): 18.9%
Percent stabilization effect (hPDE5 mutants [4]; SDF 3.704 μM): 21.7%
Percent stabilization effect (hPDE5 mutants [4]; SDF 11.111 μM): 20.0%
Percent stabilization effect (hPDE5 mutants [4]; SDF 33.333 μM): 39.4%
Percent stabilization effect (hPDE5 mutants [4]; SDF 100 μM (set as 100%)): 100.0%
GFP FACS analysis (MFI) (hPDE5 mutants [4]; TDF 1.235 μM): 337
Percent stabilization effect (hPDE5 mutants [4]; TDF 1.235 μM): 35.3%
Percent stabilization effect (hPDE5 mutants [4]; TDF 3.704 μM): 37.2%
Percent stabilization effect (hPDE5 mutants [4]; TDF 11.111 μM): 48.1%
Percent stabilization effect (hPDE5 mutants [4]; TDF 33.333 μM): 74.1%
Percent stabilization effect (hPDE5 mutants [4]; TDF 100 μM (set as 100%)): 100.0%
Percent stabilization effect (hPDE5 mutants [4]; VDF 1.235 μM): 7.1%
Percent stabilization effect (hPDE5 mutants [4]; VDF 3.704 μM): 21.9%
Percent stabilization effect (hPDE5 mutants [4]; VDF 11.111 μM): 51.2%
Percent stabilization effect (hPDE5 mutants [4]; VDF 33.333 μM): 84.3%
Percent stabilization effect (hPDE5 mutants [4]; VDF 100 μM (set as 100%)): 100.0%

Substance: LibC000021: hPDE5 (Amino acid 535-860 of WT, V594I), DD generated by random mutagenesis
Stabilization ratio (hPDE5 mutants [3]): 2.6
Destabilizing mutation co-efficient (hPDE5 mutants [3]): 0.30
MFI 10 μM VDF (hPDE5 mutants [3]): 4440
MFI DMSO (hPDE5 mutants [3]): 1732

Substance: LibC000013: hPDE5 (Amino acid 535-860 of WT, L781P), DD generated by random mutagenesis
Stabilization ratio (hPDE5 mutants [3]): 1.5
Destabilizing mutation co-efficient (hPDE5 mutants [3]): 0.09
MFI 10 μM VDF (hPDE5 mutants [3]): 723
MFI DMSO (hPDE5 mutants [3]): 498
GFP FACS analysis (MFI) (hPDE5 mutants [3]; SDF 3.704 μM): 3467
GFP FACS analysis (MFI) (hPDE5 mutants [3]; SDF 11.111 μM): 5539
GFP FACS analysis (MFI) (hPDE5 mutants [3]; SDF 33.333 μM): 7404
GFP FACS analysis (MFI) (hPDE5 mutants [3]; SDF 100 μM): 8260
GFP FACS analysis (MFI) (hPDE5 mutants [3]; TDF 3.704 μM): 6275
GFP FACS analysis (MFI) (hPDE5 mutants [3]; TDF 11.111 μM): 8085
GFP FACS analysis (MFI) (hPDE5 mutants [3]; TDF 33.333 μM): 8353
GFP FACS analysis (MFI) (hPDE5 mutants [3]; TDF 100 μM): 7614
GFP FACS analysis (MFI) (hPDE5 mutants [3]; VDF 1.235 μM): 6773
GFP FACS analysis (MFI) (hPDE5 mutants [3]; VDF 3.704 μM): 7330
GFP FACS analysis (MFI) (hPDE5 mutants [3]; VDF 11.111 μM): 7393
GFP FACS analysis (MFI) (hPDE5 mutants [3]; VDF 33.333 μM): 7308
GFP FACS analysis (MFI) (hPDE5 mutants [3]; VDF 100 μM): 7207
GFP FACS analysis (MFI) (hPDE5 mutants [4]; DMSO (no ligand), SDF series): 943
GFP FACS analysis (MFI) (hPDE5 mutants [4]; DMSO (no ligand), TDF series): 847
GFP FACS analysis (MFI) (hPDE5 mutants [4]; DMSO (no ligand), VDF series): 854
GFP FACS analysis (MFI) (hPDE5 mutants [4]; SDF 1.235 μM): 2076
GFP FACS analysis (MFI) (hPDE5 mutants [4]; TDF 1.235 μM): 3688

Substance: LibC000010: hPDE5 (Amino acid 535-860 of WT, R658H), DD generated by random mutagenesis
Stabilization ratio (hPDE5 mutants [3]): 2.1
Destabilizing mutation co-efficient (hPDE5 mutants [3]): 1.17
MFI 10 μM VDF (hPDE5 mutants [3]): 13940
MFI DMSO (hPDE5 mutants [3]): 6713

Substance: LibC000024: hPDE5 (Amino acid 535-860 of WT, T784I), DD generated by random mutagenesis
Stabilization ratio (hPDE5 mutants [3]): 1.4
Destabilizing mutation co-efficient (hPDE5 mutants [3]): 0.88
MFI 10 μM VDF (hPDE5 mutants [3]): 6905
MFI DMSO (hPDE5 mutants [3]): 5039

Substance: LibC000007: hPDE5 (Amino acid 535-860 of WT, H613L, D724Y, F755Y), DD generated by random mutagenesis
Stabilization ratio (hPDE5 mutants [3]): 1.0
Destabilizing mutation co-efficient (hPDE5 mutants [3]): 0.04
MFI 10 μM VDF (hPDE5 mutants [3]): 234
MFI DMSO (hPDE5 mutants [3]): 234

Substance: LibC000017: hPDE5 (Amino acid 535-860 of WT, Y709H, F787V), DD generated by random mutagenesis
Stabilization ratio (hPDE5 mutants [3]): 2.9
Destabilizing mutation co-efficient (hPDE5 mutants [3]): 0.39
MFI 10 μM VDF (hPDE5 mutants [3]): 6530
MFI DMSO (hPDE5 mutants [3]): 2244
